From US20250236642A1, “PHARMACEUTICAL COMPOSITION FOR TREATMENT OR PREVENTION OF ADULT T-CELL LEUKEMIA” (NEC Corporation, priority 2022, published 2025)

Target: HLA-A*24:02 molecule
Assay: flow cytometry, C1R-A24 cells
Conditions: not given

Binder | -log Kd value
YQLSPPITW (modifications not checked) [peptide of SEQ ID NO: 32] | -5.76

Target: HLA-A*24:02 molecule
Assay: flow cytometry, C1R-A24 cells
Conditions: not given
Remark: another data set of the same source

Binder | -log Kd value
IALETPVWI (modifications not checked) [peptide of SEQ ID NO: 20] | -5.48
ALQPPCPNL (modifications not checked) [peptide of SEQ ID NO: 31] | -5.31
YQLSPPITW (modifications not checked) [peptide of SEQ ID NO: 32] | -6.76
IQYSSFHNL (modifications not checked) [peptide of SEQ ID NO: 21] | -6.53
ALQFLIPRL (modifications not checked) [peptide of SEQ ID NO: 22] | -4.96
ALPAPHLTL (modifications not checked) [peptide of SEQ ID NO: 18] | -6.73

Same assay, conditions: remark: other sources report otherwise

Binder | -log Kd value
YPGWHSTTI [peptide of SEQ ID NO: 52] | -5.66

Target: HLA-A*02:01 molecule
Assay: flow cytometry, T2 cells
Conditions: not given

Binder | -log Kd value
YQLSPPITW (modifications not checked) [peptide of SEQ ID NO: 32] | -3.46

Target: HLA-A*02:01 molecule
Assay: flow cytometry, T2 cells
Conditions: not given
Remark: another data set of the same source

Binder | -log Kd value
IALETPVWI (modifications not checked) [peptide of SEQ ID NO: 20] | -5.11
ALQPPCPNL (modifications not checked) [peptide of SEQ ID NO: 31] | -5.13
YQLSPPITW (modifications not checked) [peptide of SEQ ID NO: 32] | -3.46
IQYSSFHNL (modifications not checked) [peptide of SEQ ID NO: 21] | -5.29
ALQFLIPRL (modifications not checked) [peptide of SEQ ID NO: 22] | -5.9
ALPAPHLTL (modifications not checked) [peptide of SEQ ID NO: 18] | -5.99

Target: HLA-A*02:06 molecule
Assay: flow cytometry, RA2.6 cells
Conditions: not given

Binder | -log Kd value
STGESAQTS [peptide of SEQ ID NO: 71] | > -3
LVEEHGATL [peptide of SEQ ID NO: 43] | -4.86
LAEEHGATL [peptide of SEQ ID NO: 61] | -4.5
LTEEHGATL [peptide of SEQ ID NO: 42] | -4.92
ATLAPAVLL [peptide of SEQ ID NO: 10] | -6.12
CMIVHQGTI [peptide of SEQ ID NO: 36] | -4.37
LVITRKSFI [peptide of SEQ ID NO: 30] | -3.61
VMSHHGEKL [peptide of SEQ ID NO: 19] | -4.3
LMEEHGATL [peptide of SEQ ID NO: 13] | -5.68
EAIDGYITL [peptide of SEQ ID NO: 47] | -4.72
LLNPNRQTI [peptide of SEQ ID NO: 23] | -3.53
THLDAGTVE [peptide of SEQ ID NO: 75] | > -3
SSFEFFEEA [peptide of SEQ ID NO: 37] | -7.42
MLPQTPSHL [peptide of SEQ ID NO: 24] | -3.96
SLPNEKQTS [peptide of SEQ ID NO: 69] | > -3
GILSDHQQS [peptide of SEQ ID NO: 74] | > -3
CTDEHQWQL [peptide of SEQ ID NO: 39] | -6.8
ILSDHQQSQ [peptide of SEQ ID NO: 70] | > -3
LMITRKSFI [peptide of SEQ ID NO: 17] | -4.53
VMQIDGVQP [peptide of SEQ ID NO: 67] | -3.41
VLLQQFQTA [peptide of SEQ ID NO: 15] | -5.47
SLVLTWAAL [peptide of SEQ ID NO: 14] | -6.24
ALAPPTAQL [peptide of SEQ ID NO: 6] | -6.41
LTITRKSFI [peptide of SEQ ID NO: 45] | -3.79
AQISAYRTC [peptide of SEQ ID NO: 50] | -4.09
GSPDEFSND [peptide of SEQ ID NO: 72] | > -3
LPPARHSTI [peptide of SEQ ID NO: 76] | > -3

Binder | -log Kd value
ATAPPTAQL [peptide of SEQ ID NO: 25] | -6.16
AQAPPTAQL [peptide of SEQ ID NO: 5] | -5.85
YLYDPPTTI [peptide of SEQ ID NO: 4] | -5.87
GYITLGKPH [peptide of SEQ ID NO: 80] | > -3
SPDEFSNDF [peptide of SEQ ID NO: 73] | > -3
FSNDFGQSL [peptide of SEQ ID NO: 35] | -4.71
YVYDPPTTI [peptide of SEQ ID NO: 2] | -5.55
ALPKIRARV [peptide of SEQ ID NO: 12] | -4.78
LIEEHGATL [peptide of SEQ ID NO: 40] | -4.81
LLITRKSFI [peptide of SEQ ID NO: 16] | -4.63
YFFTVIFSF [peptide of SEQ ID NO: 44] | > -4.4
LIITRKSFI [peptide of SEQ ID NO: 29] | -3.64
GTHLDAGTV [peptide of SEQ ID NO: 51] | -3.66
LLEEHGATL [peptide of SEQ ID NO: 41] | -5.3
ISAYRTCWI [peptide of SEQ ID NO: 34] | -3.14
ALRPAPALL [peptide of SEQ ID NO: 26] | > -3.37
ASPSHMTSM [peptide of SEQ ID NO: 81] | > -3
IFADVSSST [peptide of SEQ ID NO: 78] | > -3
YTYDPPTTI [peptide of SEQ ID NO: 3] | -6.17
KFLEAFHEV [peptide of SEQ ID NO: 8] | -5.81
ETLQFIDSM [peptide of SEQ ID NO: 53] | -3.37
ARHSTIPLV [peptide of SEQ ID NO: 77] | > -3
CIDEHQWQL [peptide of SEQ ID NO: 28] | -5.25
LHEEHGATL [peptide of SEQ ID NO: 79] | > -3
LAITRKSFI [peptide of SEQ ID NO: 46] | -3.04
LLLFSAAAL [peptide of SEQ ID NO: 1] | -4.96

Target: HLA-A*02:06 molecule
Assay: flow cytometry, RA2.6 cells
Conditions: not given
Remark: another data set of the same source

Binder | -log Kd value
YTYDPPTTI [peptide of SEQ ID NO: 3] | -5.17
